# Test results as given in PMC11767649, “Two Cysteines in Raf Kinase Inhibitor Protein Make Differential Contributions to Structural Dynamics In Vitro” (Molecules, 2025).
# B1: rhRKIP C133S mutant, histidine-tagged (natural protein, human, UniProt P30086 1-187, looked up)
# chain: MPVDLSKWSGPLSLQEVDEQPQHPLHVTYAGAAVDELGKVLTPTQVKNRPTSISWDGLDSGKLYTLVLTDPDAPSRKDPKYREWHHFLVVNMKGNDISSGTVLSDYVGSGPPKGTGLHRYVWLVYEQDRPLKSDEPILSNRSGDHRGKFKVASFRKKYELRAPVAGTCYQAEWDDYVPKLYEQLSGK
# notes: human RKIP (PEBP1), cDNA GenBank NM_002567 in pET28B+, site-directed mutant; Same construct as m1 with the point mutation; source: E. coli BL21(DE3), purified (Ni-NTA)
# B2: rhRKIP C168A mutant, histidine-tagged (natural protein, human, UniProt P30086 1-187, looked up)
# chain: MPVDLSKWSGPLSLQEVDEQPQHPLHVTYAGAAVDELGKVLTPTQVKNRPTSISWDGLDSGKLYTLVLTDPDAPSRKDPKYREWHHFLVVNMKGNDISSGTVLSDYVGSGPPKGTGLHRYVWLVYEQDRPLKCDEPILSNRSGDHRGKFKVASFRKKYELRAPVAGTAYQAEWDDYVPKLYEQLSGK
# notes: as for B1
# B3: rhRKIP Ser153 to aspartate mutant, histidine-tagged (natural protein, human, UniProt P30086 1-187, looked up)
# chain: MPVDLSKWSGPLSLQEVDEQPQHPLHVTYAGAAVDELGKVLTPTQVKNRPTSISWDGLDSGKLYTLVLTDPDAPSRKDPKYREWHHFLVVNMKGNDISSGTVLSDYVGSGPPKGTGLHRYVWLVYEQDRPLKCDEPILSNRSGDHRGKFKVADFRKKYELRAPVAGTCYQAEWDDYVPKLYEQLSGK
# notes: human RKIP (PEBP1), cDNA GenBank NM_002567 in pET28B+, site-directed mutant; Same construct as m1 with the point mutation; also called S153D; source: E. coli BL21(DE3), purified (Ni-NTA)
# B4: rhRKIP Ser153 to glutamate mutant, histidine-tagged (natural protein, human, UniProt P30086 1-187, looked up)
# chain: MPVDLSKWSGPLSLQEVDEQPQHPLHVTYAGAAVDELGKVLTPTQVKNRPTSISWDGLDSGKLYTLVLTDPDAPSRKDPKYREWHHFLVVNMKGNDISSGTVLSDYVGSGPPKGTGLHRYVWLVYEQDRPLKCDEPILSNRSGDHRGKFKVAEFRKKYELRAPVAGTCYQAEWDDYVPKLYEQLSGK
# notes: human RKIP (PEBP1), cDNA GenBank NM_002567 in pET28B+, site-directed mutant; Same construct as m1 with the point mutation; also called S153E; source: E. coli BL21(DE3), purified (Ni-NTA)
# B5: rhRKIP Ser153 to alanine mutant, histidine-tagged (natural protein, human, UniProt P30086 1-187, looked up)
# chain: MPVDLSKWSGPLSLQEVDEQPQHPLHVTYAGAAVDELGKVLTPTQVKNRPTSISWDGLDSGKLYTLVLTDPDAPSRKDPKYREWHHFLVVNMKGNDISSGTVLSDYVGSGPPKGTGLHRYVWLVYEQDRPLKCDEPILSNRSGDHRGKFKVAAFRKKYELRAPVAGTCYQAEWDDYVPKLYEQLSGK
# notes: human RKIP (PEBP1), cDNA GenBank NM_002567 in pET28B+, site-directed mutant; Same construct as m1 with the point mutation; also called S153A; source: E. coli BL21(DE3), purified (Ni-NTA)
# B6: rhRKIP C168S mutant, histidine-tagged (natural protein, human, UniProt P30086 1-187, looked up)
# chain: MPVDLSKWSGPLSLQEVDEQPQHPLHVTYAGAAVDELGKVLTPTQVKNRPTSISWDGLDSGKLYTLVLTDPDAPSRKDPKYREWHHFLVVNMKGNDISSGTVLSDYVGSGPPKGTGLHRYVWLVYEQDRPLKCDEPILSNRSGDHRGKFKVASFRKKYELRAPVAGTSYQAEWDDYVPKLYEQLSGK
# notes: as for B1
# Columns and labels:
# [1] = target: the molecule itself; test: non-reducing SDS-PAGE; purified rhRKIP in sample loading buffer without β-mercaptoethanol or boiling; Coomassie Brilliant Blue staining or anti-His immunoblot
# [2] = target: the molecule itself; test: LC Q-TOF mass spectrometry; purified rhRKIP WT and mutant proteins in buffer at pH 7.4; peaks around 22 kDa (monomer) and 44 kDa (dimer)
Protein,stoichiometry N [1],stoichiometry N [2]
B1,2,–
B2,–,2
B3,2,–
B4,2,–
B5,2,–
B6,2,–
